Literature values as cited in paper PMC3210452.
Read-outs that look alike come from different tables or passages of the source.

Legend:
[1] = biological target: P-type voltage-gated calcium channel (UniProt P54282)
[2] = biological target: Q-type voltage-gated calcium channel (UniProt O00555)
[3] = biological target: P-type voltage-gated calcium channel (UniProt P54282); remark: listed apart in the source

UniProt P54282, sequence (P54282 whole entry): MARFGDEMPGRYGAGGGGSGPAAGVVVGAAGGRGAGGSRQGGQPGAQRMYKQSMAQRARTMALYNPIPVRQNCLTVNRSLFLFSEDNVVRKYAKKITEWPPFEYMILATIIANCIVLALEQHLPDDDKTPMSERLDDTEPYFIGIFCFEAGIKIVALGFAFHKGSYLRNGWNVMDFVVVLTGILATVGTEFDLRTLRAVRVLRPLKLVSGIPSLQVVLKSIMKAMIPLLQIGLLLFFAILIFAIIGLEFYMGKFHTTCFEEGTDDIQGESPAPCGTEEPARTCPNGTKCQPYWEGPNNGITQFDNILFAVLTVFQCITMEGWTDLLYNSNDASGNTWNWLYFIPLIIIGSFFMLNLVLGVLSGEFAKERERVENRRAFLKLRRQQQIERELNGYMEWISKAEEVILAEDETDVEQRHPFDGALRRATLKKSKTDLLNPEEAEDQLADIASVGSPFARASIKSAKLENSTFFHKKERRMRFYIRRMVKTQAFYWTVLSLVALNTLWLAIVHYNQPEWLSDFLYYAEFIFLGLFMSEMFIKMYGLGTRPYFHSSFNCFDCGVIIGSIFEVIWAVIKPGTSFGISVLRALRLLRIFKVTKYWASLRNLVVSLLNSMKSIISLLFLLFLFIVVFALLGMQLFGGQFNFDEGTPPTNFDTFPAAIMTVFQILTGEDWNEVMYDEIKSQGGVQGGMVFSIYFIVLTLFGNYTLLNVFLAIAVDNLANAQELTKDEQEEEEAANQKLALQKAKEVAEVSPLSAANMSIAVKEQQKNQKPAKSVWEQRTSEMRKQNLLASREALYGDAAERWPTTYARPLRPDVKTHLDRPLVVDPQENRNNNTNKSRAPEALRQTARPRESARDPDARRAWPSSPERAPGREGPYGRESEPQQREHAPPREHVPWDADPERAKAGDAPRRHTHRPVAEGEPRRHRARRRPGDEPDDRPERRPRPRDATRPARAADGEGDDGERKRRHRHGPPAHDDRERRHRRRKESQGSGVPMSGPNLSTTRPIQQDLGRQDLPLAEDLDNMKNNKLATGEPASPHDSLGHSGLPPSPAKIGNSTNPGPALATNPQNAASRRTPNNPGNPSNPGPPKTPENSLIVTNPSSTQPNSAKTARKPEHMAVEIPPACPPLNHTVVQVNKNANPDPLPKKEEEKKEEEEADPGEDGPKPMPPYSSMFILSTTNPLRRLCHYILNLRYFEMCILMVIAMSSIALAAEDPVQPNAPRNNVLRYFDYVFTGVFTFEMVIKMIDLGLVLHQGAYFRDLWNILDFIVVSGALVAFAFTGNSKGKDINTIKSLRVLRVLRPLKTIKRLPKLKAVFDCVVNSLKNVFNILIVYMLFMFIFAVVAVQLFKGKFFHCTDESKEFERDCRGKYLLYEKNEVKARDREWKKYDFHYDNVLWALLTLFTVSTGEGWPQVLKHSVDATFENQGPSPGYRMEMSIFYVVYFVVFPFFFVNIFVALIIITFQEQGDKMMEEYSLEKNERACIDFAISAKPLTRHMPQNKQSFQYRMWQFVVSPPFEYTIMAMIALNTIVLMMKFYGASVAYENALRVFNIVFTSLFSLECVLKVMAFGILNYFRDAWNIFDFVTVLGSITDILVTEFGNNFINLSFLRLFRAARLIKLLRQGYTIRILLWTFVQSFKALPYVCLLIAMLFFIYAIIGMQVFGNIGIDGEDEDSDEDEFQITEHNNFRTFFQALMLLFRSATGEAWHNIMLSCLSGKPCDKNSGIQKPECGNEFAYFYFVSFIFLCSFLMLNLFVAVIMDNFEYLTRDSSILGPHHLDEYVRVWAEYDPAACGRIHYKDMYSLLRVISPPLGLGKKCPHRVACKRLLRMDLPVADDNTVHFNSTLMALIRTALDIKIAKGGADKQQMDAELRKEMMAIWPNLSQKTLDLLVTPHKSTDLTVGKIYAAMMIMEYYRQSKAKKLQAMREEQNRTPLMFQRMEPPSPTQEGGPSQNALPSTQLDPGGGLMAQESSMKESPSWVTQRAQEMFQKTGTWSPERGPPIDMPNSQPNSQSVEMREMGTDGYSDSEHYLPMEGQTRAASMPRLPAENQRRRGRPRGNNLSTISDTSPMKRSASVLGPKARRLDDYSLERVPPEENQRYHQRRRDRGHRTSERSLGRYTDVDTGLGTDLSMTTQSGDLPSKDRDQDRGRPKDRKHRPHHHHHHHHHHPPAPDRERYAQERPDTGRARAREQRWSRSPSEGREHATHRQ
UniProt O00555, sequence (O00555 whole entry): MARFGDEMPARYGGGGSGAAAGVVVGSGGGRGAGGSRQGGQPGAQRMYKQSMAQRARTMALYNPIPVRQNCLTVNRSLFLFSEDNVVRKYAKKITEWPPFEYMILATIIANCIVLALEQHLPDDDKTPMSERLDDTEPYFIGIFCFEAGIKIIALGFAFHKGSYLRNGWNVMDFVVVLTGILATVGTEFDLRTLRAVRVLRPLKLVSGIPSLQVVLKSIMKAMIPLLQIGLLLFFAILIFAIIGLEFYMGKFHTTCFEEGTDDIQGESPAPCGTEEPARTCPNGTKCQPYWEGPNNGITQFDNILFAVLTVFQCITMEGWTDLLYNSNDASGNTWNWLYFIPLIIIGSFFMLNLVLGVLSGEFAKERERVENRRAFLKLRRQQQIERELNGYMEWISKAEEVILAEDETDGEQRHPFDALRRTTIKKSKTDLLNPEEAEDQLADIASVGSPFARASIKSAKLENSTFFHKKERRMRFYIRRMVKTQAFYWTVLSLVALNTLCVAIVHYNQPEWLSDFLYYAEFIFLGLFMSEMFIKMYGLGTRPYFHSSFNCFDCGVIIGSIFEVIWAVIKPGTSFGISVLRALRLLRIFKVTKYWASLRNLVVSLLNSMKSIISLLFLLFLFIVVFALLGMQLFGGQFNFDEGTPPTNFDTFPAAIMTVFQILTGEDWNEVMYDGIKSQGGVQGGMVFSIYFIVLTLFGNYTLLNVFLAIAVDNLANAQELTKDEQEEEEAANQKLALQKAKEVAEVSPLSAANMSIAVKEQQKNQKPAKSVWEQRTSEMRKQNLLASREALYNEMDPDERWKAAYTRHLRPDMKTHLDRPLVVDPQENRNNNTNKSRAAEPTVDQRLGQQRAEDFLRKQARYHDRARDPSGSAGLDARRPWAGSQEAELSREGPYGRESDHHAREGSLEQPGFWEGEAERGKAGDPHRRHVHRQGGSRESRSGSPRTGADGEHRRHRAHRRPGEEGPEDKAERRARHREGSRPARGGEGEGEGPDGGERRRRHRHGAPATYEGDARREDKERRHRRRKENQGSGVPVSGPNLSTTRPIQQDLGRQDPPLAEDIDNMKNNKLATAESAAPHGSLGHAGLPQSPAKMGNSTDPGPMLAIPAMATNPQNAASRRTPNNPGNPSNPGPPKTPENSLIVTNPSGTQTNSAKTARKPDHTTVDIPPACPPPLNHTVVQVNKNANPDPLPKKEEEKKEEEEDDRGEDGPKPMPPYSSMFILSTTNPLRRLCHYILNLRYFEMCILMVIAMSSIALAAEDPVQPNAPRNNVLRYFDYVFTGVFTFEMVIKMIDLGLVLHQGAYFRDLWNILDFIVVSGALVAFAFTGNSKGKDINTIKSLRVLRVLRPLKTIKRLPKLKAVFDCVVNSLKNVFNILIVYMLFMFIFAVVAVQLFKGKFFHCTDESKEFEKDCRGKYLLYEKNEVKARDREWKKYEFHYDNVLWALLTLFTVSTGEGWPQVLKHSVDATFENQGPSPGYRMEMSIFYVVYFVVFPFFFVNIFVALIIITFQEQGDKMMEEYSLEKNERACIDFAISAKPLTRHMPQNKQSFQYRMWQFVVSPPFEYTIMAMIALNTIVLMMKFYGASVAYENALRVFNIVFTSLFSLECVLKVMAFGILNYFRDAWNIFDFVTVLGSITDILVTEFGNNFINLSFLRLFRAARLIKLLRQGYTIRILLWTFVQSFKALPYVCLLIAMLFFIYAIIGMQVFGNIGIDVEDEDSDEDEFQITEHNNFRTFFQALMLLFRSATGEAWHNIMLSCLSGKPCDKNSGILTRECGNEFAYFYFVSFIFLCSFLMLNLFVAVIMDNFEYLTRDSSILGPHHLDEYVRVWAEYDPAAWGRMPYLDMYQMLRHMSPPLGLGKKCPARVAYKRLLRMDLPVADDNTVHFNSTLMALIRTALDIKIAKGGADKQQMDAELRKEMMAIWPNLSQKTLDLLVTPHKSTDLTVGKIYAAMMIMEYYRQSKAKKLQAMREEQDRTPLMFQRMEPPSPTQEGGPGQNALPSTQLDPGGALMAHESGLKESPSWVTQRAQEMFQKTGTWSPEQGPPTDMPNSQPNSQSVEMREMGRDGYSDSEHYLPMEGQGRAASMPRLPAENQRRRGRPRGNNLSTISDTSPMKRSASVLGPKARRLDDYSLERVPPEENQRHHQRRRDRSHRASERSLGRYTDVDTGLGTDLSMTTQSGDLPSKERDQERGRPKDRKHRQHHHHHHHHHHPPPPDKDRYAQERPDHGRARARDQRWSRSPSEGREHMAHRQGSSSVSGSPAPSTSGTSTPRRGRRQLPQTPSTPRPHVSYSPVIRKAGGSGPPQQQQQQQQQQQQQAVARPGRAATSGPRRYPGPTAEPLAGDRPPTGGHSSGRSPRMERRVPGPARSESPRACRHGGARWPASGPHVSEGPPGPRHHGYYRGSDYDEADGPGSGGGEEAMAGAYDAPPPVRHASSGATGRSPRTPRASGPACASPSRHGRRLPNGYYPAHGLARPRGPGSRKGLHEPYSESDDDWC

Substance	Kd [1]	Kd [2]	Kd [3]
ω-agatoxin IVA (from UniProt P30288)	2 nM	100 nM	–
ω-agatoxin IVB (from UniProt P37045)	–	–	3 nM
